Measurements: IntAct's records for PubMed 19726565

B1: Inositol phosphorylceramide synthase regulatory subunit KEI1 (Saccharomyces cerevisiae), Q06346 (parent)
chain: MRSSLLTLPKSFLGFMPLYLAVEIVLGISILNKCSGAYGILALFTGHPLDFMQWIAYLWSVFTLIVFSQGLYLIHKPNLLVFSQICVLYTIDTISTCFFTLWFTTQWFTLEDTANIDGNNALQSNPISTGKLTERGIDISKQSATESYEYTMTILITLVSLIFRFYFNFILASFVQELLHHPKYLVDRDDVEQNLKNKPIWKRLWAKSQKGCYKLCKNLLE
partner: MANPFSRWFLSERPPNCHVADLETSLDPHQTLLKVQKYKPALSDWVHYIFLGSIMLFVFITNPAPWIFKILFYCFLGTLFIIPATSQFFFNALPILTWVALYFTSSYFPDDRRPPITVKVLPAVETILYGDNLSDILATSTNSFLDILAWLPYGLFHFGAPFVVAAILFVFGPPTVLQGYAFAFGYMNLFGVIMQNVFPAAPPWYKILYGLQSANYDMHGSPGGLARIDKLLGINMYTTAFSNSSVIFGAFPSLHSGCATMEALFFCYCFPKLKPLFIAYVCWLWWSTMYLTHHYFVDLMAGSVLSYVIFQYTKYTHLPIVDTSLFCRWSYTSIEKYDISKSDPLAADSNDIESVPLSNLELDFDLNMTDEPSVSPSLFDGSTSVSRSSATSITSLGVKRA

Variants of: B1
Settings: with aur1_yeast AUR1, P36107

**Q.** How did the “effect of a mutation on the interaction” value turn out when F103I was run?
**A.** The value was “disrupting interaction strength”.
